The experiment deals with PDL1 on the surface of TC-1 cells (UniProt Q9EP73). The experiment is described as follows: flow cytometry, staining of TC-1 tumor cells (background control).

From patent publication US20190134195A1 come the findings set out here.

Chain of UniProt Q9EP73 (Q9EP73 19-290 limits assumed): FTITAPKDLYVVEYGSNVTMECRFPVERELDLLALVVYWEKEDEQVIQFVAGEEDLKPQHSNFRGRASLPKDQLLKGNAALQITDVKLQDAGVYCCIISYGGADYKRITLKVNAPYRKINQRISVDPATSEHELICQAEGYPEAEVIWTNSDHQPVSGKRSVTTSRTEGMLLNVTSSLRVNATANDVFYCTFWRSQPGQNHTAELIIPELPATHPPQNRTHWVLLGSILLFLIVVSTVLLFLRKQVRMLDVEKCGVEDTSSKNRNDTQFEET

For the substance PE-conjugated isotype control antibody, the median fluorescent intensity (MFI) came out at 184.
